From patent US20170165339A1 (IMMATICS BIOTECHNOLOGIES, published 2017)

What follows are binders tested against HLA-A*02 (human) (assay: UV peptide-exchange ELISA, yield grade).

Binder | peptide exchange yield [%]
SLATKIVEA [SLATKIVEA (SEQ ID NO: 55)] | 50 to 75
TMDSVLVTV [TMDSVLVTV (SEQ ID NO: 25)] | 50 to 75
FLVDGSYSI [FLVDGSYSI (SEQ ID NO: 9)] | 50 to 75
SLFPDSLIV [SLFPDSLIV (SEQ ID NO: 64)] | 20 to 49
FLTAINYLL [FLTAINYLL (SEQ ID NO: 72)] | 50 to 75
SLPNGKPVSV [SLPNGKPVSV (SEQ ID NO: 28)] | 50 to 75
TLFGYSVVL [TLFGYSVVL (SEQ ID NO: 74)] | 50 to 75
AVIKFLELL [AVIKFLELL (SEQ ID NO: 75)] | 50 to 75
SVVPDVRSV [SVVPDVRSV (SEQ ID NO: 65)] | 20 to 49
FLHDEKEGIYI [FLHDEKEGIYI (SEQ ID NO: 56)] | 50 to 75
AVGPVHNSV [AVGPVHNSV (SEQ ID NO: 76)] | 20 to 49
ALQEELTEL [ALQEELTEL (SEQ ID NO: 26)] | 50 to 75
ILAPFSVDL [ILAPFSVDL (SEQ ID NO: 37)] | 50 to 75
ALFAPLVHL [ALFAPLVHL (SEQ ID NO: 60)] | 50 to 75
GLSQITNQL [GLSQITNQL (SEQ ID NO: 20)] | 50 to 75
ILLDLTDNRL [ILLDLTDNRL (SEQ ID NO: 18)] | 50 to 75
GLLPLLHRA [GLLPLLHRA (SEQ ID NO: 12)] | ≥ 75
FVDPNTQEKV [FVDPNTQEKV (SEQ ID NO: 22)] | 20 to 49
VTFKEYVTV [VTFKEYVTV (SEQ ID NO: 79)] | 20 to 49
AMIEEVFEA [AMIEEVFEA (SEQ ID NO: 30)] | 20 to 49
FLGPRIIGL [FLGPRIIGL (SEQ ID NO: 38)] | 50 to 75
VLNPLITAV [VLNPLITAV (SEQ ID NO: 54)] | 50 to 75
VLHSKFWVV [VLHSKFWVV (SEQ ID NO: 71)] | 50 to 75
YLLDPSITL [YLLDPSITL (SEQ ID NO: 29)] | 50 to 75
KLIFSVEAV [KLIFSVEAV (SEQ ID NO: 66)] | 50 to 75
SISDNVWEV [SISDNVWEV (SEQ ID NO: 19)] | 50 to 75

Binder | peptide exchange yield [%]
TLLQRLTEV [TLLQRLTEV (SEQ ID NO: 67)] | 50 to 75
SLADTNSLAVV [SLADTNSLAVV (SEQ ID NO: 36)] | 50 to 75
YTLDIPVLFGV [YTLDIPVLFGV (SEQ ID NO: 16)] | ≥ 75
ILFHGVFYA [ILFHGVFYA (SEQ ID NO: 50)] | 50 to 75
LLYPEPWSV [LLYPEPWSV (SEQ ID NO: 1)] | ≥ 75
TVVTRLDEI [TVVTRLDEI (SEQ ID NO: 78)] | 20 to 49
SLSNRLYYL [SLSNRLYYL (SEQ ID NO: 68)] | 50 to 75
YTLREVDTV [YTLREVDTV (SEQ ID NO: 73)] | 20 to 49
FLLATEVVTV [FLLATEVVTV (SEQ ID NO: 34)] | ≥ 75
HLLEGSVGV [HLLEGSVGV (SEQ ID NO: 39)] | 50 to 75
LLLGDSALYL [LLLGDSALYL (SEQ ID NO: 70)] | 50 to 75
KLLDPQEFTL [KLLDPQEFTL (SEQ ID NO: 59)] | 50 to 75
ALLERGELFV [ALLERGELFV (SEQ ID NO: 47)] | 50 to 75
VQLDSIEDLEV [VQLDSIEDLEV (SEQ ID NO: 32)] | 50 to 75
TLDEKVAEL [TLDEKVAEL (SEQ ID NO: 24)] | 50 to 75
NALDKVLSV [NALDKVLSV (SEQ ID NO: 81)] | 50 to 75
ALFENTPKA [ALFENTPKA (SEQ ID NO: 41)] | 20 to 49
SLFSDEFKV [SLFSDEFKV (SEQ ID NO: 23)] | 50 to 75
VLIDPQWVLTA [VLIDPQWVLTA (SEQ ID NO: 40)] | 50 to 75
LLDSVSRL [LLDSVSRL (SEQ ID NO: 42)] | < 20
YLDLSHNQL [YLDLSHNQL (SEQ ID NO: 15)] | 50 to 75
TITETTVEV [TITETTVEV (SEQ ID NO: 31)] | 50 to 75
QVIEDSTGV [QVIEDSTGV (SEQ ID NO: 48)] | 20 to 49
ALMAMLVYV [ALMAMLVYV (SEQ ID NO: 13)] | 20 to 49
SQIPAQPSV [SQIPAQPSV (SEQ ID NO: 63)] | 20 to 49

Continued, values first:

peptide exchange yield [%] | Binder
50 to 75 | YLLPLLPAL [YLLPLLPAL (SEQ ID NO: 58)]
50 to 75 | ILDHEVPSL [ILDHEVPSL (SEQ ID NO: 7)]
20 to 49 | ALNPELVQA [ALNPELVQA (SEQ ID NO: 62)]
50 to 75 | GIAGSLKTV [GIAGSLKTV (SEQ ID NO: 10)]
50 to 75 | RLMEENWNA [RLMEENWNA (SEQ ID NO: 27)]
50 to 75 | FLAVGLVDV [FLAVGLVDV (SEQ ID NO: 69)]
50 to 75 | ALSPSYLTV [ALSPSYLTV (SEQ ID NO: 11)]
20 to 49 | AIVKEIVNI [AIVKEIVNI (SEQ ID NO: 61)]
50 to 75 | YIKTELISV [YIKTELISV (SEQ ID NO: 33)]
50 to 75 | AIQDEIRSV [AIQDEIRSV (SEQ ID NO: 21)]
≥ 75 | LLFSRLCGA [LLFSRLCGA (SEQ ID NO: 51)]
50 to 75 | FLLPFSTVYL [FLLPFSTVYL (SEQ ID NO: 35)]
20 to 49 | TVFTDHMLTV [TVFTDHMLTV (SEQ ID NO: 57)]
50 to 75 | GIVAHIQEV [GIVAHIQEV (SEQ ID NO: 5)]
20 to 49 | SQFPLPLAV [SQFPLPLAV (SEQ ID NO: 46)]
50 to 75 | ALNIATHVL [ALNIATHVL (SEQ ID NO: 49)]
50 to 75 | TLIDEQDIPLV [TLIDEQDIPLV (SEQ ID NO: 77)]
20 to 49 | KLYEADFVL [KLYEADFVL (SEQ ID NO: 80)]
50 to 75 | ALFDSLRHV [ALFDSLRHV (SEQ ID NO: 6)]
50 to 75 | SLFETAWEA [SLFETAWEA (SEQ ID NO: 44)]
50 to 75 | KMVGLVVAI [KMVGLVVAI (SEQ ID NO: 53)]
≥ 75 | ILAKDLFEI [ILAKDLFEI (SEQ ID NO: 14)]
≥ 75 | KLMPGTYTL [KLMPGTYTL (SEQ ID NO: 4)]
≥ 75 | KLEENGDLYL [KLEENGDLYL (SEQ ID NO: 3)]
